According to US20260137802A1 (CRISPR THERAPEUTICS, published 2026):

B1: P-0035 (Fc fusion)
chain: QVQLVESGGGLVQAGGSLRLSCAASGGTFSIYPVGWFRQAPGKQREFVAAIGWSASGTYYGDSVEGRFTVSRDNARSTVYLRMSSLKPDDTAVYYCAAASGSNWRLGAIDEYDSWGQGTQVTVSS
notes: Any second Fc chain without VHH is not described in the text; also called monovalent form of P35; not shown: Fc fragment
B2: P-0037 (Fc fusion)
chain: QVQLVESGGGLVQAGDSLRLSCAVSGRTLSNYFMAWLRQAPGKEREFVAAIHWSLGSTYYQDPVKGRFTISRDKAKNTVYLQMNTLKPEDTATYICAAGQHLSGLGGSAWSIEGDYWGQGTQVTVSS
notes: Any second Fc chain without VHH is not described in the text; also called monovalent form of P37; not shown: Fc fragment
B3: P-0038 (Fc fusion)
chain: EVQLVESGGGLVQAGGSLRLSCAASGRTSGSYVMGWFRQAPGKEREFVAAISWSAGMTYYADSVKGRFTISRDNAKNTVYLQMNSLKPEDTAVYYCAADQRGVPAYYSDYALYDYWGQGTQVTVSS
notes: Any second Fc chain without VHH is not described in the text; also called monovalent form of P38; not shown: Fc fragment
B4: P-0031 (Fc fusion)
chain: EVQLVESGGGLVRAGGSLRLSCAASGRTFTYDARAWFRQAPGKEREFVAAISWSGGSTYYPNSMKGRFTISRDNAKNTVYLQMNSLKPEDTAVYYCAADESFPAYYSDYALYRYWGQGTLVTVSS
notes: Any second Fc chain without VHH is not described in the text; also called monovalent form of P31; not shown: Fc fragment
B5: P37 (VHH)
VHH: B2 chain
notes: also called P37/P58; anti-CD117 VHH P37
B6: P29 (VHH)
VHH: QVHLVESGGGLVQAGGSLGLSCAASGHTFSNYAMGWFRQAPGKEREFVAAISWSGGSTLYADSVKGRFTISRDNGENTVYLQMNSLKPEDTAVYYCALDSTGVYGTGYVSSRKGRYEYWGQGTLVTVSS
notes: also called P29/P54; anti-CD117 VHH P29

Target: cynomolgus monkey CD117 ectodomain (cynomolgus monkey)
Assay: BLI (Octet), biotinylated ectodomain on SA biosensor, 1:1 global fit, monomeric Fc

Kd [nM]	Binder
7.02	B1
25	B2
19	B3
1.62	B4

Target: T1, human CD117 ectodomain (human, UniProt P10721 26-524, biotinylated (BirA co-expression) where captured on streptavidin biosensors)
T1 construct: extracellular domain; also called cKIT; full length AviTagged CD117 ectodomain; not shown: C-terminal AviTag or His tag
Assay: ELISA, human CD117, monovalent Fc fusion

T1 sequence (P10721 26-524): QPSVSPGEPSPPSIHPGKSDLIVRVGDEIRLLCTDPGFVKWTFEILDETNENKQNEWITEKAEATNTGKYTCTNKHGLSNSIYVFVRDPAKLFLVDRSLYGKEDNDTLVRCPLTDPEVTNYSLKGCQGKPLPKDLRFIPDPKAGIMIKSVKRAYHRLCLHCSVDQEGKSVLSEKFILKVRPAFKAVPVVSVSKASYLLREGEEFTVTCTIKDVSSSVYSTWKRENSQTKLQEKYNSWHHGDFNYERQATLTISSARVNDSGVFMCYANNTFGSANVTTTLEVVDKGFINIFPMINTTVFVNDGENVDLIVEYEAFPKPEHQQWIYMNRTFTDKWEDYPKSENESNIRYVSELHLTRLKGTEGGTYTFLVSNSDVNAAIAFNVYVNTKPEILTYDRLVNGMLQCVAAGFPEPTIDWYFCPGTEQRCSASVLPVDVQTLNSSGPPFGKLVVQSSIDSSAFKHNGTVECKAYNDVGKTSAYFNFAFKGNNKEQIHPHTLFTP

Kd [nM]	Binder
1.91	B1
0.97	B2
1	B3
0.52	B4

Target: T1, human CD117 ectodomain
Assay: BLI (Octet), biotinylated ectodomain on SA biosensor, 1:1 global fit, monomeric Fc
Text: Pre-equilibrated streptavidin biosensors (SA, from Sartorius) were coated with biotinylated CD117 ectodomain by dipping the biosensors into wells containing an optimized dilution of human or cyno CD117 ectodomain. After re-equilibrating the biosensor tips in assay buffer, the biosensors were dipped into supernatant containing the VHH antibodies to allow association between the antibodies and the CD117 ectodomain. Finally, the biosensors were dipped into the assay buffer. The VHH antibodies disassociated from the CD117 ectodomain if association occurred. The association and dissociation of each VHH antibody was characterized qualitatively to identify VHHs that could bind both human and cyno CD117 ectodomains.
For example, kinetics parameters of the top VHH antibodies for binding to human CD117 and cynomolgus monkey CD117 ectodomain were obtained from the Octet® analysis by Biolayer Interferometry as described above. A minimum of three concentrations of purified VHH antibodies were tested per ectodomain target. The Octet® software was used to perform a global kinetic fit across all concentrations using a 1:1 binding model. This allowed determination of the kinetic parameters, association rate (kₒₙ), dissociation rate (koff) and equilibrium constant (KD) for the 9 antibodies of interest. Total chi-squared (X²) was also examined to determine the goodness of fit for the software's kinetic model.

Kd [nM]	Binder
2.89	B1
28	B2
8.85	B3
7.42	B4

Target: T2, human CD117 on cells (SKMEL-3 cells, CD34+ HSC) (human, UniProt P10721 26-976)
T2 construct: whole, on cells; also called CD117 on cell surfaces; CD117+ cells
Assay: flow cytometry, skMEL-3 cells, monomeric Fc

T2 sequence (P10721 26-976): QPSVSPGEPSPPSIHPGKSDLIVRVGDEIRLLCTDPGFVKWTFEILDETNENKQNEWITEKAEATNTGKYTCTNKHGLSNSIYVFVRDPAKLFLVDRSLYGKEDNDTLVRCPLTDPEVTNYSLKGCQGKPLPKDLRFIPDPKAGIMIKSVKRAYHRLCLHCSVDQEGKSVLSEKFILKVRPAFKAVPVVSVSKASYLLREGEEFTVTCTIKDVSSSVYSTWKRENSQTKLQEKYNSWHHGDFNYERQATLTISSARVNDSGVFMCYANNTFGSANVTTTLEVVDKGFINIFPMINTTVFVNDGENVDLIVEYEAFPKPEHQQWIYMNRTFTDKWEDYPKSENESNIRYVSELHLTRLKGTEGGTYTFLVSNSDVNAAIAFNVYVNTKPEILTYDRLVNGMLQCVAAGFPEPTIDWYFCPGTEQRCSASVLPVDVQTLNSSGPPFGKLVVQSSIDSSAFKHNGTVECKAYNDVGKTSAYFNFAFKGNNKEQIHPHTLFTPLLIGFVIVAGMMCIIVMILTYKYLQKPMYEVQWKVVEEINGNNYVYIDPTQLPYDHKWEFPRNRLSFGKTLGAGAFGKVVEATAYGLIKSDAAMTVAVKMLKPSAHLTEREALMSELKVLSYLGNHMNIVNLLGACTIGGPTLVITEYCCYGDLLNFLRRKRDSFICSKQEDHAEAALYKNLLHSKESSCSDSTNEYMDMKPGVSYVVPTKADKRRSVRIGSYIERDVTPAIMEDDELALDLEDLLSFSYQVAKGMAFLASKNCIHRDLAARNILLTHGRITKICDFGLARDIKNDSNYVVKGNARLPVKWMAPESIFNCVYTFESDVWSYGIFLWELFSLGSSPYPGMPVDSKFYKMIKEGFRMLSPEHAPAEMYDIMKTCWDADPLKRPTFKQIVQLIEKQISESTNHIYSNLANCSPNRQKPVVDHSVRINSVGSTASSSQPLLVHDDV

EC50 [nM]	Binder
10	B1
20	B2
10	B3
3	B4

Target: T2, human CD117 on cells (SKMEL-3 cells, …)
Assay: flow cytometry, CD34+ HSC, monomeric Fc

EC50 [nM]	Binder
30	B1
> 50	B2
10	B3
4	B4

Target: T3, truncated CD117 ectodomain, Domains 1-3 (UniProt P10721 26-311, limits assumed, biotinylated)
T3 construct: domain: Domains 1-3; not shown: AviTag
Assay: BLI, truncated ectodomain on SA biosensor
Procedure: (§1) To identify the approximate binding epitopes of the VHH antibodies, truncated ectodomains were expressed as fusion polypeptides with an AviTag. Additionally, biotin is added to the protein during expression to allow capture of the material onto Streptavidin-coated (SA) biosensors. SA biosensors (Sartorius) were incubated with one of the truncated ectodomains. Full length CD117 ectodomain was used as a control. […] Except for P29 and P37, all others bind Domains 1-2 and Domains 1-3. Except for P37, all others bind Domains 1-4.

T3 sequence (P10721 26-311 limits assumed): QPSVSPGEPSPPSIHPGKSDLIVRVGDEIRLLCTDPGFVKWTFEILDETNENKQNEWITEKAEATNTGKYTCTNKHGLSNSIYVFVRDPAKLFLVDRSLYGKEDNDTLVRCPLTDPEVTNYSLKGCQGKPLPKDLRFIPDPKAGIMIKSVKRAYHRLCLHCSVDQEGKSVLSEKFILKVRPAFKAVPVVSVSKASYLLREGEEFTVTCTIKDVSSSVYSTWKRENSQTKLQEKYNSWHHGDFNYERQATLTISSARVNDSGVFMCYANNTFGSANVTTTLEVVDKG

binding result	Binder
no binding	B5
no binding	B6

Target: T4, truncated CD117 ectodomain, Domain 1 (UniProt P10721 26-112, limits assumed, biotinylated)
T4 construct: domain: Domain 1; not shown: AviTag
Assay: BLI, truncated ectodomain on SA biosensor
Procedure: as §1

T4 sequence (P10721 26-112 limits assumed): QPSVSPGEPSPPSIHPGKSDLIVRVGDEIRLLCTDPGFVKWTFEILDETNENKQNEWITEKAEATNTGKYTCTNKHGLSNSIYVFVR

binding result	Binder
no binding	B5
no binding	B6

Target: T5, truncated CD117 ectodomain, Domains 1-4 (UniProt P10721 26-410, limits assumed, biotinylated)
T5 construct: domain: Domains 1-4; not shown: AviTag
Assay: BLI, truncated ectodomain on SA biosensor
Procedure: as §1

T5 sequence (P10721 26-410 limits assumed): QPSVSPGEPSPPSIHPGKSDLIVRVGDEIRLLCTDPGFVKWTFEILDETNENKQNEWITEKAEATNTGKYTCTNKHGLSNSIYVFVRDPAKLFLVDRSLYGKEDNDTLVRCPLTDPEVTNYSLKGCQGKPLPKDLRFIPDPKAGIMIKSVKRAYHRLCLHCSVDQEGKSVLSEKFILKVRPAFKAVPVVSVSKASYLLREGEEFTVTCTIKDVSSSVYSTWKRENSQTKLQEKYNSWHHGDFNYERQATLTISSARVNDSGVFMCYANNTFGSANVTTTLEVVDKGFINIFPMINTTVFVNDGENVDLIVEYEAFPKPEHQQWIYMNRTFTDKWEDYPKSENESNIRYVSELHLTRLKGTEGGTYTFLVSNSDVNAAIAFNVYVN

binding result	Binder
no binding	B5

Target: T6, truncated CD117 ectodomain, Domains 1-2 (UniProt P10721 26-208, limits assumed, biotinylated)
T6 construct: domain: Domains 1-2; not shown: AviTag
Assay: BLI, truncated ectodomain on SA biosensor
Procedure: as §1

T6 sequence (P10721 26-208 limits assumed): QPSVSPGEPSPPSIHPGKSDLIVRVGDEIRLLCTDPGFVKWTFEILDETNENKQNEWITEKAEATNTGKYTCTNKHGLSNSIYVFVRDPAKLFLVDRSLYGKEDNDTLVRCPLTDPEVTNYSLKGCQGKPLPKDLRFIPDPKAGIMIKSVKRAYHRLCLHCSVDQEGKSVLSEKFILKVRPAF

binding result	Binder
no binding	B5
no binding	B6
